{"source": "patent US7989466B2", "about": "“Methods to inhibit or augment an inflammatory response” (Cambridge Enterprise Limited, priority 1999, dated 2011)", "key": {"[1]": {"tested_on": "MCP-1 induced THP-1 migration", "assay": "THP-1 trans-well migration assay, MCP-1 as chemoattractant", "format": "cell-based, human", "settings": "for EC50: Homo sapiens", "procedure,_shortened": "(§1)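 5×10^4 THP-1 cells with serially diluted peptide in upper chamber, 5 µm filter, recombinant human chemokine 50 ng/ml (5.9 nM) in lower chamber. Incubated 4 h at 37 °C. Migrated cells counted by MTT staining, A595 read against a THP-1 standard curve.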"}, "[2]": {"target": "T1, short splice variant D2 dopamine receptor (Homo sapiens, UniProt P14416)", "T1 construct": "purchased RBI/Sigma D-179", "T1 sequence (P14416 1-414 isoform P14416-2)": "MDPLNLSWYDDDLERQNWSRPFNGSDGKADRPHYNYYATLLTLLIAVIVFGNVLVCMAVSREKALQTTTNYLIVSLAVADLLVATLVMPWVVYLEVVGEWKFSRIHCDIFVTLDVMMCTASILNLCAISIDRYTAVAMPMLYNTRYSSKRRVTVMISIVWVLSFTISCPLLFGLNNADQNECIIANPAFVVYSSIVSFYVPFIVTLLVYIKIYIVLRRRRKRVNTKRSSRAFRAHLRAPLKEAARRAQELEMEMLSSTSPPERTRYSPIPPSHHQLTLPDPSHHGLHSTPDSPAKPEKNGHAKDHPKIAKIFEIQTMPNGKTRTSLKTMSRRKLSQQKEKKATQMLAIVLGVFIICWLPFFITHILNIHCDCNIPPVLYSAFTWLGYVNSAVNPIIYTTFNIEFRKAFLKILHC", "assay": "Dopamine receptor membrane binding (3H-Spiperone)", "settings": "100 μM highest concentration tested; read-out: ED50 for competition of spiperone binding to short splice variant D2 dopamine receptor", "method": "For dopamine receptor binding, membranes (D-179, RBI/Sigma) are diluted into binding buffer (75 mM Tris pH 7.4, 12.5 mM MgCl2 and 2 mM EDTA). For example, 10 μl of membranes are diluted in 500 μl of binding buffer (i.e., 1:50 dilution), which is aliquoted into labelled tubes. Cold competitor or test competitor is added, (e.g., 5 μl of 100× stock solution; 5 μl of 1 mM haloperidol solution (H-100, RBI/Sigma in DMSO). Radioligand is then added (3H-Spiperone, TRK 818, Amersham, 250 μCi in 250 μl, 10.5 μM at 95 Ci/mmol). For competition studies, 0.5 nM is used. A 100× stock (i.e., 50 nM) is made by diluting the commercial stock 1:210 in binding buffer, and 5 μl is added to every tube. Control tubes have radioligand but no membranes. The mixtures are vortexed, then spun very briefly. The mixtures are then incubated for 1 hour at 27° C. in a water bath. The mixture is filtered through GF/C filters over a vacuum. Each filter is pre-soaked in polyethyleneimine (0.3% in water; add 1 ml of 10% stock (P-261; RBI/Sigma) to 33 ml of MilliQ water). The tubes are washed with 2-3 ml of wash buffer (50 mM Tris pH 7.4) and the wash filtered. The filters are then rinsed with 3×5 ml of wash buffer, air dried, placed in a scintillation vial and 4.5 ml of scintillant added. The activity on the filter is then determined."}, "α2-adrenoceptors": {"tested_on": "α2-adrenoceptors", "assay": "α2-adrenoreceptor membrane binding (3H-RS-79948-197)"}, "CCR5": {"target": "T2, CCR5 (Homo sapiens, UniProt P51681)", "T2 construct": "host or cells: HOS cells", "T2 sequence (P51681 whole entry)": "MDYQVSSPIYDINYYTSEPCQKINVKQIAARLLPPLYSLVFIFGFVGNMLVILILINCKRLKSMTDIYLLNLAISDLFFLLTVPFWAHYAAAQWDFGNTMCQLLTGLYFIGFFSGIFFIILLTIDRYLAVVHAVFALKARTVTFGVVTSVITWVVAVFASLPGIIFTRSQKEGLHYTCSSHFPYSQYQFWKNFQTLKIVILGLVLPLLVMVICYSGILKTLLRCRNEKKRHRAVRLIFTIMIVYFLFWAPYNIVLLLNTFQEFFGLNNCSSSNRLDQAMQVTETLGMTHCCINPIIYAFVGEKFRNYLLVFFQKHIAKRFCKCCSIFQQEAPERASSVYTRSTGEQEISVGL", "assay": "Scatchard analysis of labeled RANTES binding to CCR5 HOS cells", "settings": "4° C., 2 hours, read-out: affinity of RANTES binding sites", "method": "To establish the kinetics of labeled RANTES binding to CCR5, CCR5 cells and their parental line were exposed to labeled RANTES at 0.05 nM in the absence or presence of a 500-fold excess of unlabeled RANTES. Binding was performed at either 4° C. or room temperature for various periods between 30 minutes and 4 hours. All data was collected in triplicate. Equilibrium was achieved slightly quicker at room temperature than 4° C., and that in both cases binding was complete by 2 hours (FIG. 22A). […] Based on this experiment, all binding experiments were done at 4° C. for 2 hours.\nA Scatchard analysis was performed under the conditions determined to represent equilibrium binding. The purpose of this experiment was to estimate the number of high affinity binding sites (CCR5 receptors) on the cell surface, since the full Scatchard analysis is performed under conditions where the binding was limited by availability of binding sites, not by number of molecules RANTES added. The result indicated about 80,000 binding sites per cell on the parental line and about 200,000-400,000 binding sites per cell on the high expressing CCR5 line. Using this information, the conditions necessary to perform a full 12-point Scatchard analysis at equilibrium, limited by binding site number, were calculated. […]"}, "[3]": {"tested_on": "MIP1α induced THP-1 migration", "assay": "THP-1 trans-well migration assay, MIP1α as chemoattractant", "format": "cell-based, human", "settings": "ns = not significantly different from control", "procedure,_shortened": "as §1"}, "[4]": {"tested_on": "SDF-1α induced THP-1 migration", "assay": "THP-1 trans-well migration assay, SDF-1α as chemoattractant", "format": "cell-based, human", "settings": "ns = not significantly different from control", "procedure,_shortened": "as §1"}, "HIV": {"tested_on": "HIV", "format": "cell-based", "settings": "ns = not significantly different from control"}, "CCR5/CXCR4": {"target": "CCR5/CXCR4", "assay": "Affinity for CCR5/CXCR4", "format": "binding", "settings": "read-out: affinity constant for CCR5/CXCR4"}, "gp120": {"tested_on": "gp120", "settings": "ns = not significantly different from control; >100 = ED50 not determined"}, "[5]": {"target": "T3, Duffy Antigen Receptor for Chemokines (DARC) (Homo sapiens, UniProt Q16570)", "T3 sequence (Q16570 1-336)": "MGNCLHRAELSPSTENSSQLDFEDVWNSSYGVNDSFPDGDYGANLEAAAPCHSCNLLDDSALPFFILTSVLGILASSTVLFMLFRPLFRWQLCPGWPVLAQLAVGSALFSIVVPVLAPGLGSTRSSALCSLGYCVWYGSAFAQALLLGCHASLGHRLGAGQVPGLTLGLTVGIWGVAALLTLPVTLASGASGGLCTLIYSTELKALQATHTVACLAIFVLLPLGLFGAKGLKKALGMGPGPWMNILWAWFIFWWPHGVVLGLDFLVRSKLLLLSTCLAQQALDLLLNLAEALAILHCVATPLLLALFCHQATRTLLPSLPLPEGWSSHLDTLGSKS", "assay": "DARC binding: competition with 125I-MCP-1 on red blood cells"}, "[6]": {"settings": "rat, in vivo"}, "[7]": {"settings": "mouse, in vivo, sc"}}, "note": "Like-named read-outs stand apart in the source and are kept apart here. Positions of bridges follow the written chain, without caps; N, C: chain ends. Non-standard residues stand in square brackets, D forms with d. No end group written: not given here."}
{"compound": "O=C1CCC(N2C(=O)c3ccccc3C2=O)C(=O)N1", "note": "(stereo not drawn) [Thalidomide, reference compound]", "values": [{"measurement": "activity in the MCP-1 induced THP-1 migration assay, in words", "setting": "[1]", "value": "at 100 μM also inhibited THP-1 migration induced by MCP-1"}, {"measurement": "EC50", "setting": "[1]; THP-1, agent with the cells in the upper compartment, n.s. = no statistically significant inhibition (p > 0.05), read-out: ED50 versus MCP-1, inhibition of THP-1 migration", "value": "~50", "unit": "µM"}, {"measurement": "IC50", "setting": "[2]", "value": "> 100", "unit": "µM"}]}
{"compound": "NC(=O)C1C(O)CCC2CN3CCc4c([nH]c5ccccc45)C3CC21", "note": "(stereo not drawn) [Y-II, Yohimban-17-amide]", "values": [{"measurement": "EC50", "setting": "[1]; THP-1, read-out: ED50 versus MCP-1 induced chemotaxis of THP-1", "value": 0.0005, "unit": "µM"}, {"measurement": "selectivity for chemokine inhibition of alpha-adrenoreceptor binding", "setting": "α2-adrenoceptors", "value": "1,500 fold"}]}
{"compound": "RANTES", "values": [{"measurement": "Kd", "setting": "CCR5", "value": "~0.001", "unit": "µM"}]}
{"compound": "Vaekpcksstirrys (V[dA][dE][dK][dP][dC][dK][dS][dS][dT][dI][dR][dR][dY][dS]) [LRD peptide 2(1-15)[MCP-1]]", "values": [{"measurement": "MCP-1 ED-50", "setting": "[1]; ns = not significantly different from control", "value": "ns"}, {"measurement": "MIPIa ED-50", "setting": "[3]", "value": "ns"}, {"measurement": "SDF1a ED-50", "setting": "[4]", "value": "ns"}, {"measurement": "% virus inhibition", "setting": "HIV", "value": 72, "unit": "%"}, {"measurement": "Kd", "setting": "CCR5/CXCR4", "value": "≤ 0.1", "unit": "µM"}, {"measurement": "gp120 ED-50", "setting": "gp120", "value": 3, "unit": "µM"}, {"measurement": "decrease in Duffy binding relative to the LFL peptide", "setting": "[5]", "value": "~100", "unit": "fold"}, {"measurement": "association (affinity) constant for DARC", "setting": "[5]; red blood cells", "value": 25, "unit": "µM"}]}
{"compound": "^3H-CRD-L-Leu4Ile11Cys13 peptide 3(3-12)[MCP-1]: diastereomer of CRD-Leu4Ile11Cys13 peptide 3(3-12)[MCP-1] with L-leucine instead of D-leucine ([dC][dQ][dI][dW][dK][dQ][dK][dP][dD]L[dC]-NH2; disulfide 1-11; also: 3H-labelled, site not given here)", "values": [{"measurement": "activity in the MCP-1 induced THP-1 migration assay, in words", "setting": "[1]", "value": "retained functional activity"}, {"measurement": "A", "setting": "[6]", "value": "A: 48.88 μg/mL"}, {"measurement": "AUC", "setting": "[6]", "value": 31.43, "unit": "µg·h/mL"}, {"measurement": "B", "setting": "[6]", "value": "B: 63.64 μg/mL"}, {"measurement": "Maximal concentration", "setting": "[6]", "value": "1,710 ng mL^−1"}, {"measurement": "Maximal concentration/dose", "setting": "[6]", "value": 0.000017}, {"measurement": "Vd", "setting": "[6]", "value": 0.36, "unit": "L/kg"}, {"measurement": "dose accounted for in the 25 tissues and organs assayed at 3 hours post injection", "setting": "[6]", "value": "about 11 % i.d."}, {"measurement": "dose excreted in urine over the first 2 hours", "setting": "[6]", "value": "> 80", "unit": "% i.d."}, {"measurement": "injected radioactivity in the urine with a mass consistent with the intact, cyclized structure", "setting": "[6]", "value": "> 80", "unit": "%"}, {"measurement": "serum concentration at 30 minutes", "setting": "[6]", "value": 591, "unit": "ng/g"}, {"measurement": "share of the total counts in the unwashed cell pellet at 10 minutes", "setting": "[6]", "value": "< 12", "unit": "%"}, {"measurement": "α", "setting": "[6]", "value": "α: 9.59"}, {"measurement": "β", "setting": "[6]", "value": "β: 2.42"}, {"measurement": "dose eliminated in the urine over the first 4 hours", "setting": "[6]; iv", "value": "86.6+/−16.5 % i.d."}, {"measurement": "injected dose present in blood by four hours post injection", "setting": "[6]; iv", "value": "about 0.1%"}, {"measurement": "serum concentration at 10 minutes post injection, females", "setting": "[6]; iv", "value": "1.238 ± 0.138", "unit": "µg/mL"}, {"measurement": "serum concentration at 10 minutes post injection, males", "setting": "[6]; iv", "value": "1.141 ± 0.283", "unit": "µg/mL"}, {"measurement": "serum level at 10 minutes, females", "setting": "[6]; iv", "value": "12.45±1.39 % of the injected dose"}, {"measurement": "serum level at 10 minutes, males", "setting": "[6]; iv", "value": "14.38±3.46", "unit": "% i.d."}, {"measurement": "Elimination half-life", "setting": "[6]; iv, 100 ug", "value": 11.4, "unit": "min"}, {"measurement": "alpha-phase T1/2", "setting": "[6]; iv, 100 ug", "value": 4.2, "unit": "min"}, {"measurement": "beta-phase T1/2", "setting": "[6]; iv, 100 ug", "value": 17.4, "unit": "min"}, {"measurement": "dose remaining in the blood by 2 hours", "setting": "[6]; iv, 2 h", "value": "less than 1 % i.d."}, {"measurement": "average serum concentration at 30 minutes post injection", "setting": "[7]", "value": 503, "unit": "ng/g"}]}
